The source of these data is the DeepSol protein solubility set.

This series is described as follows: soluble on expression in E. coli; label from the status in PepcDB or PDB records.
Take “MGYTLADKIWRSHVVRSAEGEPDLVYIDMHLLHEVNTPAAFAGLRAAGRTVRRPDLTLGTEDHNTPTDDVLRMITDPGAVEQLDHIRRNCRDFGIELYSLGDSARGIVHVIGPELGLTQPGMTLVCCDSHTSTHGAFGVLAFGIGTSQVEHVLATQTLPMAPMQN”: the “soluble on expression in E. coli” value is on record as “not soluble”.

For the sequence “MHCPFCRHPDSRVIDSRETDEGQAIRRRRSCPECGRRFTTVETAVLAVVKRSGVTEPFSREKVISGVRRACQGRQVDDDALNLLAQQVEDSVRAAGSPEIPSHDVGLAILGPLRELDEVAYLRFASVYRSFSSADDFAREIEALRAHRNLSAHS”, the “soluble on expression in E. coli” value was “soluble”.

For the sequence “MHEITLCQRALELIEQQASAYGAKRVTAVWIKIGAFSCVETSALSFCFDLVCRGTIAEGCKLHLEEQEAECWCEHCQQYVTLLTHRVRRCPQCHSDTLRIVADDGLQIRRIEIDETED”, the “soluble on expression in E. coli” value is “not soluble”.

“MHESARHIVDLYQRHARAWDQRRRANPEAFEGEQAWLERFRRVMGQGGQVLDLGCGGGEPIARNLIEHQCAVTGVDSSATLLDHCRQRFAGQQWIHADMRSLALDQDFAGILAWNSLFHLSPDDQRAMFTVFERHAGPGCALMFTSGPEAGEAIGEFEGEALYHASLSPGEYCTLLDTHGFEVVQHISEDPDCCGFTVWLARAIDWGLEHHHHHH”: the “soluble on expression in E. coli” value is on record as “not soluble”.

Turning to “MHEWALADAIVRTVLDYAQKEGASRVKAVKVVLGELQDVGEDIVKFAMEELFRGTIAEGAEIIFEEEEAVFKCRNCGHVWKLKEVKDKLDERIREDIHFIPEVVHAFLSCPKCGSHDFEVVKGRGVYISGIMIEKEGEELEHHHHHH”, the “soluble on expression in E. coli” value is on record as “soluble”.

In the case of “MHHHHHHAMGIPGHAFSKIKVKQPVVELDGDEMTRIIWDKIKKKLILPYLDVDLKYYDLSVESRDATSDKITQDAAEAIKKYGVGIKCATITPDEARVKEFNLHKMWKSPNGTIRNILGGTVFREPIVIPRIPRLVPRWEKPIIIGRHAHGDQYKATDTLIPGPGSLELVYKPSDPTTAQPQTLKVYDYKGSGVAMAMYNTDESIEGFAHSSFKLAIDKKLNLFLSTKNTILKKYDGRFKDIFQEVYEAQYKSKFEQLGIHYEHRLIDDMVAQMIKSKGGFIMALKNYDGDVQSDIVAQGFGSLGLMTSILVTPDGKTFESEAAHGTVTRHYRKYQKGEETSTNSIASIFAWSRGLLKRGELDNTPALCKFANILESATLNTVQQDGIMTKDLALACGNNERSAYVTTEEFLDAVEKRLQKEIKSIE”, the “soluble on expression in E. coli” value was “soluble”.

As to “MHHHHHHGSMSMPNHQNMLDNQTILITGGTGSFGKCFVRKVLDTTNAKKIIVYSRDELKQSEMAMEFNDPRMRFFIGDVRDLERLNYALEGVDICIHAAALKHVPIAEYNPLECIKTNIMGASNVINACLKNAISQVIALSTDKAANPINLYGATKLCSDKLFVSANNFKGSSQTQFSVVRYGNVVGSRGSVVPFFKKLVQNKASEIPITDIRMTRFWITLDEGVSFVLKSLKRMHGGEIFVPKIPSMKMTDLAKALAPNTPTKIIGIRPGEKLHEVMIPKDESHLALEFEDFFIIQPTISFQTPKDYTLTKLHEKGQKVAPDFEYSSHNNNQWLEPDDLLKLL”, the “soluble on expression in E. coli” value is reported as “soluble”.

On to “MHHHHHHMGLNTAIATRVNGTPPPEVPIADIELGSLDFWALDDDVRDGAFATLRREAPISFWPTIELPGFVAGNGHWALTKYDDVFYASRHPDIFSSYPNITINDQTPELAEYFGSMIVLDDPRHQRLRSIVSRAFTPKVVARIEAAVRDRAHRLVSSMIANNPDRQADLVSELAGPLPLQIICDMMGIPKADHQRIFHWTNVILGFGDPDLATDFDEFMQVSADIGAYATALAEDRRVNHHDDLTSSLVEAEVDGERLSSREIASFFILLVVAGNETTRNAITHGVLALSRYPEQRDRWWSDFDGLAPTAVEEIVRWASPVVYMRRTLTQDIELRGTKMAAGDKVSLWYCSANRDESKFADPWTFDLARNPNPHLGFGGGGAHFCLGANLARREIRVAFDELRRQMPDVVATEEPARLLSQFIHGIKTLPVTWS”, for which the “soluble on expression in E. coli” value is “soluble”.

In the case of “MHHHHHHSSGRENLYFQGIRMSQILEPRSEEDWTAHRTRIVCTMGPACWNVDTLVKMIDAGMNVCRLNFSHGDHETHARTVQNIQEAMKQRPEARLAILLDTKGPEIRTGFLKDHKPITLQQGATLKIVTDYNLIGDETTIACSYGALPQSVKPGNTILIADGSLSVKVVEVGSDYVITQAQNTATIGERKNMNLPNVKVQLPVIGEKDKHDILNFGIPMGCNFIAASFVQSADDVRYIRGLLGPRGRHIRIIPKIENVEGLVNFDEILAEADGIMIARGDLGMEIPPEKVFLAQKMMIAKCNVVGKPVITATQMLESMIKNPRPTRAEAADVANAVLDGTDCVMLSGETANGEFPVITVETMARICYEAETCVDYPALYRAMCLAVPPPISTQEAVARAAVETAECVNAAIILALTETGQTARLIAKYRPMQPILALSASESTIKHLQVIRGVTTMQVPSFQGTDHVIRNAIVVAKERELVTEGESIVAVHGMKEEVAGSSNLLKVLTVE”, the “soluble on expression in E. coli” value was “soluble”.

Consider “MHHHHHHSSGVDLGTENLYFQSMAKSAEVKLAIFGRAGVGKSALVVRFLTKRFIWEYDPTLESTYRHQATIDDEVVSMEILDTAGQEDTIQREGHMRWGEGFVLVYDITDRGSFEEVLPLKNILDEIKKPKNVTLILVGNKADLDHSRQVSTEEGEKLATELACAFYECSACTGEGNITEIFYELCREVRRRRMVQ”, for which the “soluble on expression in E. coli” value was “soluble”.

For “MHHHHHHSSGVDLGTENLYFQSMEETEKWMEEAMHMAKEALENTEVPVGCLMVYNNEVVGKGRNEVNQTKNATRHAEMVAIDQVLDWCRQSGKSPSEVFEHTVLYVTVEPCIMCAAALRLMKIPLVVYGCQNERFGGCGSVLNIASADLPNTGRPFQCIPGYRAEEAVEMLKTFYKQENPNAPKSKVRK”, the “soluble on expression in E. coli” value is recorded as “soluble”.

Turning to “MHHHHHHSSGVDLGTENLYFQSMENRELTYITNSIAEAQRVMAAMLADERLLATVRKVADACIASIAQGGKVLLAGNGGSAADAQHIAGEFVSRFAFDRPGLPAVALTTDTSILTAIGNDYGYEKLFSRQVQALGNEGDVLIGYSTSGKSPNILAAFREAKAKGMTCVGFTGNRGGEMRELCDLLLEVPSADTPKIQEGHLVLGHIVCGLVEHSIFGKQ”, the “soluble on expression in E. coli” value was “soluble”.

Turning to “MHHHHHHSSGVDLGTENLYFQSMGAASLDVIQEVEYVKEEAKMVYLLECLQKTPPPVLIFAEKKADVDAIHEYLLLKGVEAVAIHGGKDQEERTKAIEAFREGKKDVLVATDVASKGLDFPAIQHVINYDMPEEIENYVHRIGRTGCSGNTGIATTFINKACDESVLMDLKALLLEAKQKVPPVLQVLHCG”, the “soluble on expression in E. coli” value is listed as “soluble”.

Take “MHHHHHHSSGVDLGTENLYFQSMINSFYAFEVKDAKGRTVSLEKYKGKVSLVVNVASDCQLTDRNYLGLKELHKEFGPSHFSVLAFPCNQFGESEPRPSKEVESFARKNYGVTFPIFHKIKILGSEGEPAFRFLVDSSKKEPRWNFWKYLVNPEGQVVKFWRPEEPIEVIRPDIAALVRQVIIKKKEDL”: the “soluble on expression in E. coli” value is “soluble”.

In the case of “MHHHHHHSSGVDLGTENLYFQSMNGPEDLPKSYDYDLIIIGGGSGGLAAAKEAAQYGKKVMVLDFVTPTPLGTRWGLGGTCVNVGCIPKKLMHQAALLGQALQDSRNYGWKVEETVKHDWDRMIEAVQNHIGSLNWGYRVALREKKVVYENAYGQFIGPHRIKATNNKGKEKIYSAERFLIATGERPRYLGIPGDKEYCISSDDLFSLPYCPGKTLVVGASYVALECAGFLAGIGLDVTVMVRSILLRGFDQDMANKIGEHMEEHGIKFIRQFVPIKVEQIEAGTPGRLRVVAQSTNSEEIIEGEYNTVMLAIGRDACTRKIGLETVGVKINEKTGKIPVTDEEQTNVPYIYAIGDILEDKVELTPVAIQAGRLLAQRLYAGSTVKCDYENVPTTVFTPLEYGACGLSEEKAVEKFGEENIEVYHSYFWPLEWTIPSRDNNKCYAKIICNTKDNERVVGFHVLGPNAGEVTQGFAAALKCGLTKKQLDSTIGIHPVCAEVFTTLSVTKRSGASILQAGCGG”, the “soluble on expression in E. coli” value was “soluble”.

Regarding “MHHHHHHSSGVDLGTENLYFQSMRLLRASGRTPEAVQKLLEQGLRHSQDLAFLSMLNDIAAVPATAMPFRGYAVLGGERGGPEVQQVPAGERPLWFICSGMGTQWRGMGLSLMRLDRFRDSILRSDEAVKPFGLKVSQLLLSTDESTFDDIVHSFVSLTAIQIGLIDLLSCMGLRPDGIVGHSLGEVACGYADGCLSQEEAVLAAYWRGQCIKEAHLPPGAMAAVGLSWEECKQRCPPGVVPACHNSKDTVTISGPQAPVFEFVEQLRKEGVFAKEVRTGGMAFHSYFMEAIAPPLLQELKKVIREPKPRSARWLSTSIPEAQWHSSLARTSSAEYNVNNLVSPVLFQEALWHVPEHAVVLEIAPHALLQAVLKRGLKPSCTIIPLMKKDHRDNLEFFLAGIGRLHLSGIDANPNALFPPVEFPAPRGTPLIS”, the “soluble on expression in E. coli” value is “soluble”.

For “MHKIRSHSKYIIPRLNKIVEEGDADAVGFEFPVESFKFLE”, the “soluble on expression in E. coli” value was “not soluble”.

As to “MHLTCKNGEIKTIMWSNISEQFPVTGYSYWAVGVDITHLKAIEEQLKQQTSELELIFKALPDLCFLTEDDGTIIDYKAGSPTKFYVPAEAFMGKKFYEVLPTSVAQQFQEAINQVKEKGTNVIVEYPLTLNGSIDFFEARCLPLLHDKIMIIVRDITERKKTEELLNKSDTLAAIGQLAAGVAHEVRNPLTVIKGFIQLFQINKEDQERYFDLMLSEIERIEAILQEFLSIAKTDEINTEKKNIYQIFKNVVSLMNTKAIMTNIQVELFTGDKDIIIECSENQLKQVFINILQNSIEAMPNGGGISIHIKEINDDGVIIHVIDEGIGIPEERIKRLGEPFYSTKEKGTGIGLMLSYKIIESHQGTISIRSEVGVGTTVTIYLPKVLNKQSLSNCDDKCIAIRTSSNS”, the “soluble on expression in E. coli” value is reported as “not soluble”.

For “MHNVVITAAVRSPIGTFGGALKNVTPVELAVPVLQEAVKRGGVEPHEVDEVILGHCIQRTDEANTARTAALAAGFPDTVTGYTIQRQCSSGMQAIMSAAMQIQLGVSEVVVAGGVEAMSSSPYALKQHRWGQRLQHGEIRDTVWEVLEDPIHHIMMGETAENLVEQYEITREEQDEVALRSHTLALKAIESGYFDDQIVPITIKERRKEVVFSKDEHPRADITAEKLAGLKPAFRKDGSVTAGNASGLNDGSAVLVLMSEEKAKEKGLQPLARIVGYSVAGVDPKIMGIGPAPAIRKGLEKVDWSLEDADLLEINEAFAAQYLAVEKELGLDREKVNVNGSGVGLGHPIGCTGARITVSLIHELKRRGLEKGIASLCVGGGIGVALFIEAL”, the “soluble on expression in E. coli” value is “not soluble”.

As for “MHNYLDFEKPISDLEGKILELKKLASEDESVNTSDEIARLEGRVRDAMVEIYSKLSPWQKTQVARHPSRPHFLDYASRLFTEFTPLAGDRNFANDDAIQAGLARFHGTPVAVIGQEKGNDTKSRIKHNFGSPRPEGYRKATRIMEMADRFGLPLITLVDTAGAYPGVNAEERGQAEAIARSTEMCLNVKVPIVTVVIGEGGSGGAIAIATGNRVYMLEHAIYSVISPEGAASILWRDSTRAKEAASNMKITAEDLKSLGVIDGIIPEPVGGAHRDPDAVISRTETVIGDALKELSARNGDELRADRRQKYLNIGRNL”, the “soluble on expression in E. coli” value is “not soluble”.

As to “MHPALKYMRQDRLPHIFCSGCGNGIVMNCFLKAIEELNIKPEDYIAVSGIGCSSRVPGYLYCDSLHTTHGRPIAFATGIKIARPDKHVVVFTGDGDLAAIGGNHFIHGCRRNIDLTVICINNNIYGMTGGQVSPTTPYGKKATTAPYGSIENTMDLCKMAIAAGATYVARWTTAHPIQLVRSIKKGIQKKGFAFIEVVSQCPTYYGRFNISRKPADMIKFLKENSIHLNKAKDMSEEELNGKIVVGEFLDIEKPEFVEELHKLIEKLKSE”, the “soluble on expression in E. coli” value is on record as “not soluble”.
